According to patent publication US20110318347A1:

Assays:
[1] = biological target: human CXCR4 (human); assay: competition vs [125I]-CXCL12; potency relative to monovalent 238D2
[2] = biological target: human CXCR4 (human); assay: competition vs [125I]-CXCL12, membranes of HEK293T cells expressing CXCR4
[3] = biological target: CCR5 (UniProt P51681); assay: cell-based or functional assay
[4] = biological target: human CXCR4 (human); assay: cell-based or functional assay
[5] = biological target: human CXCR4 (human); assay: competition vs [125I]-CXCL12; potency relative to monovalent 238D4
[6] = biological target: human CXCR4 (human); assay: competition with [125I]-CXCL12 on HEK293T-CXCR4 membranes
[7] = biological target: human CXCR4 (human)
[8] = biological target: human CXCR4 (human); assay: competition vs [125I]-CXCL12, membranes of HEK293T cells expressing CXCR4; displacement at 0.5 µM, maximum not reached
[9] = biological target: human CXCR4 (human); assay: competition vs [125I]-238D2 (3 nM), membranes of HEK293T cells expressing CXCR4; Table B-3 competition vs [125I]-238D2, at 0.5 µM: no displacement
[10] = biological target: human CXCR4 (human); assay: competition vs [125I]-238D4 (3 nM), membranes of HEK293T cells expressing CXCR4; Table B-3 competition vs [125I]-238D4, at 0.5 µM: no displacement
[11] = biological target: human CXCR4 (human); assay: competition vs [125I]-238D2 (3 nM), membranes of HEK293T cells expressing CXCR4; Table B-3 competition vs [125I]-238D2, up to 0.5 µM; bound only
[12] = biological target: human CXCR4 (human); assay: periplasmic fraction (1:10), displacement of [125I]-CXCL12, HEK293T-CXCR4 membranes; - = 0-29%, + = 30-69%, ++ = 70-100%; screening of clones (Table B-2): 30-69% displacement of [125I]-CXCL12, HEK293T-CXCR4 membranes
[13] = biological target: human CXCR4 (human); assay: competition vs [125I]-238D4 (3 nM), membranes of HEK293T cells expressing CXCR4; Table B-3 competition vs [125I]-238D4, up to 0.5 µM; bound only
[14] = biological target: human CXCR4 (human); assay: competition vs [125I]-CXCL12 (40 pM), membranes of HEK293T cells expressing CXCR4; Table B-3 competition vs [125I]-CXCL12, up to 0.5 µM; bound only

Chain of CCR5 (P51681 whole entry): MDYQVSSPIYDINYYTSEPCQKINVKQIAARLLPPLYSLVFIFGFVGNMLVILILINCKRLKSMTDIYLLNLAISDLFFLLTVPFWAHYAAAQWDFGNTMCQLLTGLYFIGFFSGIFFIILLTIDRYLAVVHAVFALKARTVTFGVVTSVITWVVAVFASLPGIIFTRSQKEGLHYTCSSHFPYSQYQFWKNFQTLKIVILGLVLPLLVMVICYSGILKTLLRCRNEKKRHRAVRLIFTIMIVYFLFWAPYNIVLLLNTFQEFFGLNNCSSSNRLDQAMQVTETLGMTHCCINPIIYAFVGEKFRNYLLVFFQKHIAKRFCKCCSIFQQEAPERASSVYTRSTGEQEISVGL

B1: 238D2-20GS-238C5 (VHH)
chain: EVQLVESGGGLVQTGGSLRLSCAASGFTFSSYAMSWVRQAPGKGLEWVSGIKSSGDSTRYAGSVKGRFTISRDNAKNMLYLQMYSLKPEDTAVYYCAKSRVSRTGLYTYDNRGQGTQVTVSSGGGGSGGGGSGGGGSGGGGSEVQLMESGGGLVQAGGSLRLACAASGFTFEDYAIGWFRKAPGKEREGVSCISGSDGSTTYADSVKGRFTISTDNAKNTVYLEMNSLKPEDTAVYYCAQQYGVGGRVVCPGPYEYDVWGQGTQVTVSS
B1 gave a Rel. potency [1] of 0.18 fold, a Displacem. (%) [2] of 110% and a pKi [2] of 7.35.

B2: 238D2-15GS-238D4 (VHH)
chain: EVQLVESGGGLVQTGGSLRLSCAASGFTFSSYAMSWVRQAPGKGLEWVSGIKSSGDSTRYAGSVKGRFTISRDNAKNMLYLQMYSLKPEDTAVYYCAKSRVSRTGLYTYDNRGQGTQVTVSSGGGGSGGGGSGGGGSEVQLMESGGGLVQAGGSLRLSCAASGRTFNNYAMGWFRRAPGKEREFVAAITRSGVRSGVSAIYGDSVKDRFTISRDNAKNTLYLQMNSLKPEDTAVYTCAASAIGSGALRRFEYDYSGQGTQVTVSS
B2 showed an Anti-HIV-1 activity (in nM), PBMC/BaL [3] of over 100 nM, an Anti-HIV-1 activity (in nM), U87.CD4.CCR5/BaL [3] of over 100 nM and an IC50, HIV-1 BaL, PBMC donor 1 [3] of over 1 µg/mL. The IC50, HIV-1 BaL, PBMC donor 2 [3] was over 1 µg/mL, the IC90, HIV-1 BaL, PBMC donor 1 [3] was over 1 µg/mL and the IC90, HIV-1 BaL, PBMC donor 2 [3] was over 1 µg/mL. It also gave a nM IC50, HIV-1 BAL, PBMC donor 1 [3] of over 67 nM, a nM IC50, HIV-1 BAL, PBMC donor 2 [3] of over 67 nM and an Anti-HIV-1 activity (in nM), MT-4/HE [4] of 0.16 nM. The Anti-HIV-1 activity (in nM), MT-4/NL4.3 [4] was 0.25 nM, the Anti-HIV-1 activity (in nM), PBMC/HE [4] was 1.5 nM and the Anti-HIV-1 activity (in nM), PBMC/NL4.3 [4] was 0.5 nM. For the same binder, the Anti-HIV-1 activity (in nM), U87.CD4.CXCR4/NL4.3 [4] was 0.36 nM, the Chemotaxis, Jurkat/0.3 nM CXCL12, Imax (%) [4] was 107% and the Chemotaxis, Jurkat/0.3 nM CXCL12, pKi or pIC50 [4] was 9.86. For the same binder, the IC50, HIV-1 NL4.3, MT-4 cells, exp. 1 [4] was 0.0166 µg/mL, the IC50, HIV-1 NL4.3, PBMC donor 1 [4] was 0.01 µg/mL and the IC50, HIV-1 NL4.3, PBMC donor 2 [4] was 0.0179 µg/mL. For the same binder, the IC50, HIV-1 UG270, PBMC donor 1 [4] was 0.0212 µg/mL, the IC50, HIV-1 UG270, PBMC donor 2 [4] was 0.0894 µg/mL and the IC90, HIV-1 NL4.3, MT-4 cells, exp. 1 [4] was 0.0711 µg/mL. It also gave an IC90, HIV-1 NL4.3, PBMC donor 1 [4] of 0.11 µg/mL, an IC90, HIV-1 NL4.3, PBMC donor 2 [4] of 0.0341 µg/mL and an IC90, HIV-1 UG270, PBMC donor 1 [4] of 0.0789 µg/mL. It also gave an IC90, HIV-1 UG270, PBMC donor 2 [4] of 0.17 µg/mL, a nM IC50, HIV-1 NL4.3, PBMC donor 1 [4] of 0.33 nM and a nM IC50, HIV-1 NL4.3, PBMC donor 2 [4] of 0.6 nM. For the same binder, the nM IC50, HIV-1 UG270, PBMC donor 1 [4] was 0.71 nM, the nM IC50, HIV-1 UG270, PBMC donor 2 [4] was 2.98 nM and the Rel. potency [5] was 17 fold. It also gave a Rel. potency [1] of 28 fold, an IC50 (read off the curve) [6] of 500 pM and a Displacem. (%) [2] of 92%. It also gave a pKi [2] of 9.45 and an IC50 (read off the curve), migration of Jurkat cells towards 0.3 nM CXCL12 [7] of 300 pM.

B3: 238D2-20GS-238B10 (VHH)
chain: EVQLVESGGGLVQTGGSLRLSCAASGFTFSSYAMSWVRQAPGKGLEWVSGIKSSGDSTRYAGSVKGRFTISRDNAKNMLYLQMYSLKPEDTAVYYCAKSRVSRTGLYTYDNRGQGTQVTVSSGGGGSGGGGSGGGGSGGGGSEVQLVESGGGFVQAGGSLRLSCETSGRPLLGYTIAWFRQVPGKEREFVAYHRWSDGANLYADSVKGRFTISGHNAKNTVSLQMNSLKPEDTAVYYCAAARMTTSNDKEYLYWGQGTQVTVSS
Work on B3 yielded a Displacem. (%) [8] of 43%, a Rel. potency [1] of under 0.1 fold and a pKi [2] of under 7.

B4: 238D4-20GS-238D4 (VHH)
chain: EVQLMESGGGLVQAGGSLRLSCAASGRTFNNYAMGWFRRAPGKEREFVAAITRSGVRSGVSAIYGDSVKDRFTISRDNAKNTLYLQMNSLKPEDTAVYTCAASAIGSGALRRFEYDYSGQGTQVTVSSGGGGSGGGGSGGGGSGGGGSEVQLMESGGGLVQAGGSLRLSCAASGRTFNNYAMGWFRRAPGKEREFVAAITRSGVRSGVSAIYGDSVKDRFTISRDNAKNTLYLQMNSLKPEDTAVYTCAASAIGSGALRRFEYDYSGQGTQVTVSS
For B4, the Rel. potency [5] was 4.4 fold, the IC50 (read off the curve) [6] was 2000 pM and the Displacem. (%) [2] was 96%. It also gave a pKi [2] of 8.85.

B5: Nanobody 237D1 (VHH)
VHH: EVQLVESGGGLAQPGGPLRLTCEASGVIYSVNDMGWYRQAPGKQRELVAVITSGGGTNYVDSVKGRFTISGDNRKKTVYLQMNSLKPEDTAVYYCSIYYSSGISTLRSWGQGTQVTVSS
B5 was tested, and the Displacem. (%) [9] was 0%, the Displacem. (%) [10] was 0% and the pKi [11] was under 6.3. For the same binder, the percent inhibition of specific [125I]-CXCL12 binding [12] was 30 to 69%, the pKi [13] was under 6.3 and the pKi [14] was under 6.3.
